Reference: paper PMC7053344, “Crystal Structures of Human C4.4A Reveal the Unique Association of Ly6/uPAR/α-neurotoxin Domain” (International Journal of Biological Sciences, 2020)

Experiments:
[1] = target: T1, C4.4A-DIDII^1-199 fused to a C-terminal uPAR DIII purification tag (Homo sapiens, UniProt O95274); assay: far-Western, overlay or dot blot; immunoblot: purified C4.4A domain constructs, unreduced (lanes 1-6), separated by SDS-PAGE and immobilized on a PVDF membrane; 1 µg/mL mAb 11H10 as primary antibody, peroxidase-conjugated anti-mouse immunoglobulins, ECL; conditions: both partners purified
T1 construct: C4.4A (LYPD3), human, both LU-domains DI and DII, residues 1-199; also called C4.4A-DIDII (blot construct); not shown: uPAR DIII, C-terminal, kept
T1 sequence (O95274 whole entry, looked up, the tested form may be a part): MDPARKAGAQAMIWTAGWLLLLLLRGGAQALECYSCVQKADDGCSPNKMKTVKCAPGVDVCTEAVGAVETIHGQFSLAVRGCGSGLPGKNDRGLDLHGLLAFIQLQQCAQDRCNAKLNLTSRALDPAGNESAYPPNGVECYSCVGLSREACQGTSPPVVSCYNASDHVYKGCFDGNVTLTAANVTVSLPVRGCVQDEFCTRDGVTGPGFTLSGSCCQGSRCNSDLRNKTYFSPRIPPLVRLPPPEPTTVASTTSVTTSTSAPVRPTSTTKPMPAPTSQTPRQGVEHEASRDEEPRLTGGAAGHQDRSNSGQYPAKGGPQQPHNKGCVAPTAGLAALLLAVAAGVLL

[2] = target: T2, C4.4A^1-278 fused to a C-terminal uPAR DIII purification tag (Homo sapiens, UniProt O95274); assay: as above; conditions: both partners purified
T2 construct: C4.4A (LYPD3), human, DI, DII and STP-rich region, residues 1-278; also called C4.4A-ent-uPAR-DIII; not shown: uPAR DIII, C-terminal, kept
T2 sequence (O95274 whole entry, looked up, the tested form may be a part): as above

B1: mouse monoclonal anti-human C4.4A antibody 11H10 (antibody, V domains shown)
VH: QVTLKESGPGILQPSQTLSLTCSFSGFSLNSFGTGVGWIRQPSGKGLEWLAHIWWNDYKYYNAALESRLTISKDTSNNQVFLKIASVDTADTATYYCARLRLRYFDYWGQGTTLTVSS
VL: DILMTQSPAILSVSPGEGVSFSCWANQNIGTSIHWYQQRTNGSPRLLIKYASESISGIPSRFSGSGSGTDFTLSINSVESEDIADYYCQQSNSWPIFTFGSGTKLEIK
notes: 11H10 light chain (kappa), printed as the Fab light chain; 11H10 heavy chain VH, CH1 and start of the hinge, printed as the Fab heavy chain; mouse IgG1 heavy chain constant region, the rest of the hinge, CH2 and CH3 that follow the printed Fd (ends VPRDC); IgG1 kappa; also called mAb 11H10; source: mouse hybridoma (FVB mice immunized with recombinant human C4.4A), purified
binding result [1]: binds
binding result [2]: binds
